Reference: the supplement of paper PMC9112550, “Optimization of the antimicrobial peptide Bac7 by deep mutational scanning” (BMC Biology, 2022)

Test system: Escherichia coli TOP10
Assay: shrunken log2 fold change of peptide-encoding DNA abundance (4.5 h post-induction vs induction); higher = less antimicrobial activity (less host growth inhibition)
Conditions: time post-induction: 4.5 h; library: site-saturation at positions 5, 18, 19, 20
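Note: peptides expressed intracellularly from a pBAD plasmid library in pooled LB shake-flask culture, induced with 0.3% L-arabinose, DNA abundance read by NGS, three biological replicates, DESeq2 with apeglm shrinkage.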

Row | Sequence | shrunken log2 fold change
1 | RRIRNRPPRLPRPRPRPKYQPRP | -0.0997
2 | RRIRMRPPRLPRPRPRPTMWPRP | 0.274
3 | RRIRRRPPRLPRPRPRPCTQPRP | 0.207
4 | RRIRDRPPRLPRPRPRPYQFPRP | -0.0464
5 | RRIRNRPPRLPRPRPRPHKGPRP | -0.014
6 | RRIRSRPPRLPRPRPRPDALPRP | 0.353
7 | RRIRKRPPRLPRPRPRPKFDPRP | -0.146
8 | RRIRRRPPRLPRPRPRPKEMPRP | 0.0252
9 | RRIRNRPPRLPRPRPRPTDDPRP | 0.0875
10 | RRIRQRPPRLPRPRPRPGSYPRP | -0.2
11 | RRIRMRPPRLPRPRPRPLRAPRP | 2.97
12 | RRIRTRPPRLPRPRPRPTGMPRP | 0.13
13 | RRIRGRPPRLPRPRPRPNQPPRP | 0.295
14 | RRIRGRPPRLPRPRPRPDSTPRP | 0.213
15 | RRIRARPPRLPRPRPRPAYCPRP | -0.00541
16 | RRIRYRPPRLPRPRPRPVFSPRP | -0.303
17 | RRIRCRPPRLPRPRPRPWPYPRP | -0.115
18 | RRIRCRPPRLPRPRPRPIKKPRP | -0.0497
19 | RRIRGRPPRLPRPRPRPVMEPRP | 0.546
20 | RRIRDRPPRLPRPRPRPVAIPRP | 0.711
21 | RRIRRRPPRLPRPRPRPCNIPRP | -0.373
22 | RRIRNRPPRLPRPRPRPSPQPRP | 0.162
23 | RRIRCRPPRLPRPRPRPYVKPRP | -0.647
24 | RRIRPRPPRLPRPRPRPCNIPRP | -0.554
25 | RRIRVRPPRLPRPRPRPFCLPRP | -0.357

Row | Sequence | shrunken log2 fold change
26 | RRIRGRPPRLPRPRPRPMEFPRP | 0.0673
27 | RRIRVRPPRLPRPRPRPNKCPRP | -0.616
28 | RRIRLRPPRLPRPRPRPADWPRP | 0.196
29 | RRIRERPPRLPRPRPRPTDCPRP | -0.399
30 | RRIRNRPPRLPRPRPRPHIVPRP | -0.249
31 | RRIRWRPPRLPRPRPRPRDSPRP | -0.299
32 | RRIRTRPPRLPRPRPRPEIPPRP | -0.104
33 | RRIRCRPPRLPRPRPRPTCLPRP | 0.00222
34 | RRIRPRPPRLPRPRPRPFICPRP | -0.276
35 | RRIRTRPPRLPRPRPRPDFMPRP | -0.15
36 | RRIRQRPPRLPRPRPRPLDLPRP | -0.276
37 | RRIRGRPPRLPRPRPRPAAHPRP | 0.807
38 | RRIRNRPPRLPRPRPRPTSHPRP | -0.0916
39 | RRIRRRPPRLPRPRPRPSAGPRP | 0.392
40 | RRIRQRPPRLPRPRPRPDGGPRP | 0.255
41 | RRIRYRPPRLPRPRPRPAEKPRP | -0.0964
42 | RRIRSRPPRLPRPRPRPHPCPRP | 0.0687
43 | RRIRIRPPRLPRPRPRPHGNPRP | 0.142
44 | RRIRYRPPRLPRPRPRPTIDPRP | -0.271
45 | RRIRDRPPRLPRPRPRPPVSPRP | 0.0155
46 | RRIRGRPPRLPRPRPRPEEKPRP | 1.66
47 | RRIRIRPPRLPRPRPRPIYNPRP | -1.18
48 | RRIRFRPPRLPRPRPRPYNTPRP | -1.1
49 | RRIRMRPPRLPRPRPRPGPGPRP | 2.09
50 | RRIRQRPPRLPRPRPRPDLFPRP | -0.0321

Row | Sequence | shrunken log2 fold change
51 | RRIRARPPRLPRPRPRPYDEPRP | -0.0107
52 | RRIRYRPPRLPRPRPRPCVPPRP | -0.0398
53 | RRIRDRPPRLPRPRPRPGPWPRP | 0.287
54 | RRIRERPPRLPRPRPRPDWGPRP | -0.00783
55 | RRIRWRPPRLPRPRPRPIELPRP | -0.0796
56 | RRIRNRPPRLPRPRPRPKRFPRP | 0.0343
57 | RRIRARPPRLPRPRPRPYYRPRP | -0.183
58 | RRIRHRPPRLPRPRPRPRKQPRP | 0.11
59 | RRIRWRPPRLPRPRPRPWGNPRP | 0.149
60 | RRIRGRPPRLPRPRPRPNRQPRP | 0.167
61 | RRIRARPPRLPRPRPRPEALPRP | 1.71
62 | RRIRMRPPRLPRPRPRPHRQPRP | 0.532
63 | RRIRARPPRLPRPRPRPGIHPRP | 0.37
64 | RRIRERPPRLPRPRPRPEVIPRP | -0.00884
65 | RRIRARPPRLPRPRPRPCQYPRP | -0.411
66 | RRIRYRPPRLPRPRPRPGYIPRP | -0.0964
67 | RRIRNRPPRLPRPRPRPLYHPRP | -0.941
68 | RRIRDRPPRLPRPRPRPVTGPRP | 0.148
69 | RRIRLRPPRLPRPRPRPVPQPRP | 0.238
70 | RRIRMRPPRLPRPRPRPTNNPRP | -0.0518
71 | RRIRGRPPRLPRPRPRPWMHPRP | -0.00858
72 | RRIRCRPPRLPRPRPRPLPEPRP | 0.397
73 | RRIRFRPPRLPRPRPRPEYGPRP | -0.621
74 | RRIRIRPPRLPRPRPRPMATPRP | -0.0167
75 | RRIRNRPPRLPRPRPRPGFCPRP | 0.164

Row | Sequence | shrunken log2 fold change
76 | RRIRHRPPRLPRPRPRPFMYPRP | -0.249
77 | RRIRDRPPRLPRPRPRPTYCPRP | -0.27
78 | RRIRPRPPRLPRPRPRPYYWPRP | -0.0723
79 | RRIRCRPPRLPRPRPRPISKPRP | -0.37
80 | RRIRCRPPRLPRPRPRPLQPPRP | -0.0133
81 | RRIRFRPPRLPRPRPRPWWKPRP | 0.0472
82 | RRIRKRPPRLPRPRPRPGGNPRP | 0.049
83 | RRIRHRPPRLPRPRPRPAENPRP | -0.0113
84 | RRIRRRPPRLPRPRPRPNDCPRP | 0.264
85 | RRIRERPPRLPRPRPRPMHEPRP | -0.401
86 | RRIRTRPPRLPRPRPRPYQNPRP | -0.3
87 | RRIRFRPPRLPRPRPRPNLTPRP | -0.347
88 | RRIRQRPPRLPRPRPRPHIFPRP | 0.0297
89 | RRIRHRPPRLPRPRPRPTASPRP | -0.131
90 | RRIRARPPRLPRPRPRPLPVPRP | 0.174
91 | RRIRKRPPRLPRPRPRPLTCPRP | -0.000599
92 | RRIRVRPPRLPRPRPRPDVHPRP | -0.159
93 | RRIRKRPPRLPRPRPRPLDRPRP | -0.0461
94 | RRIRLRPPRLPRPRPRPLIMPRP | -0.435
95 | RRIRKRPPRLPRPRPRPEAAPRP | 1.8
96 | RRIRKRPPRLPRPRPRPGLKPRP | 0.377
97 | RRIRARPPRLPRPRPRPRHTPRP | 0.419
98 | RRIRQRPPRLPRPRPRPLWQPRP | 0.296
99 | RRIRHRPPRLPRPRPRPGPTPRP | 0.146
100 | RRIRERPPRLPRPRPRPDAWPRP | 0.0128

Row | Sequence | shrunken log2 fold change
101 | RRIRYRPPRLPRPRPRPSEQPRP | -0.0359
102 | RRIRRRPPRLPRPRPRPECFPRP | 0.3
103 | RRIRPRPPRLPRPRPRPNALPRP | 0.0933
104 | RRIRLRPPRLPRPRPRPTQMPRP | 0.333
105 | RRIRNRPPRLPRPRPRPRDKPRP | -0.332
106 | RRIRRRPPRLPRPRPRPKNCPRP | 0.0654
107 | RRIRRRPPRLPRPRPRPGIMPRP | 0.156
108 | RRIRNRPPRLPRPRPRPFFGPRP | 0.239
109 | RRIRQRPPRLPRPRPRPSNFPRP | -0.621
110 | RRIRMRPPRLPRPRPRPRRDPRP | 0.651
111 | RRIRARPPRLPRPRPRPCSMPRP | 0.00269
112 | RRIRVRPPRLPRPRPRPQKRPRP | -0.0953
113 | RRIRTRPPRLPRPRPRPFEWPRP | -0.0651
114 | RRIRPRPPRLPRPRPRPQCSPRP | -0.0986
115 | RRIRWRPPRLPRPRPRPFHQPRP | -0.259
116 | RRIRHRPPRLPRPRPRPLREPRP | 0.819
117 | RRIRQRPPRLPRPRPRPITMPRP | 0.00801
118 | RRIRIRPPRLPRPRPRPELKPRP | 0.224
119 | RRIRLRPPRLPRPRPRPQHSPRP | -0.337
120 | RRIRGRPPRLPRPRPRPAGQPRP | 0.727
121 | RRIRFRPPRLPRPRPRPSDFPRP | -0.487
122 | RRIRDRPPRLPRPRPRPYTHPRP | -0.267
123 | RRIRCRPPRLPRPRPRPIWNPRP | -0.343
124 | RRIRSRPPRLPRPRPRPEPYPRP | 0.0691
125 | RRIRCRPPRLPRPRPRPEGMPRP | 0.422

Row | Sequence | shrunken log2 fold change
126 | RRIRARPPRLPRPRPRPLMPPRP | 0.197
127 | RRIRSRPPRLPRPRPRPLMIPRP | -0.764
128 | RRIRRRPPRLPRPRPRPYLFPRP | -0.305
129 | RRIRNRPPRLPRPRPRPGYCPRP | -0.369
130 | RRIRGRPPRLPRPRPRPLCDPRP | 0.778
131 | RRIRFRPPRLPRPRPRPNNDPRP | -0.673
132 | RRIRPRPPRLPRPRPRPTSQPRP | 0.0453
133 | RRIRPRPPRLPRPRPRPKVIPRP | -0.172
134 | RRIRNRPPRLPRPRPRPTNSPRP | -0.279
135 | RRIRNRPPRLPRPRPRPIEKPRP | -0.0498
136 | RRIRGRPPRLPRPRPRPLMLPRP | 0.462
137 | RRIRIRPPRLPRPRPRPRICPRP | -0.3
138 | RRIRIRPPRLPRPRPRPWLIPRP | 0.0717
139 | RRIRMRPPRLPRPRPRPYNMPRP | -0.348
140 | RRIRKRPPRLPRPRPRPMVCPRP | 0.00938
141 | RRIRGRPPRLPRPRPRPKGAPRP | 1.06
142 | RRIRWRPPRLPRPRPRPQTQPRP | 0.516
143 | RRIRTRPPRLPRPRPRPELFPRP | 0.039
144 | RRIRTRPPRLPRPRPRPMNEPRP | -0.172
145 | RRIRDRPPRLPRPRPRPYPSPRP | -0.167
146 | RRIRNRPPRLPRPRPRPTDWPRP | 0.328
147 | RRIRIRPPRLPRPRPRPFTLPRP | 0.0488
148 | RRIRWRPPRLPRPRPRPWQQPRP | -0.01
149 | RRIRKRPPRLPRPRPRPQRSPRP | 0.392
150 | RRIRLRPPRLPRPRPRPFAWPRP | -0.00134
